# Starred links: 1 amine or outer side, 2 acyl side, 3 side chain; linkers in the order of their positions; H or OH if unused. Non-standard residues stand in square brackets, D forms with d. Primed or numbered codes have the meaning given here. No end group written: not given here. Trimesoyl = O=C(c1cc(C(=O)[*:2])cc(C(=O)[*:3])c1)[*:1]; Phe(3,4-F2) = N[C@@H](Cc1ccc(F)c(F)c1)C(=O)O; Phe(4-Br) = N[C@@H](Cc1ccc(Br)cc1)C(=O)O; Phe(4-Cl) = N[C@@H](Cc1ccc(Cl)cc1)C(=O)O; Phe(4-F) = N[C@@H](Cc1ccc(F)cc1)C(=O)O; dPhe(4-F) = N[C@H](Cc1ccc(F)cc1)C(=O)O; 2Nal = N[C@@H](Cc1ccc2ccccc2c1)C(=O)O; Pip′ = L-homoproline (pipecolyl); Dap = NC[C@H](N)C(=O)O; Sar = CNCC(=O)O
# Key:
# [1] = biological target: Pin1 (Example 6, construct not stated) (human) (UniProt Q13526); assay: fluorescence anisotropy
# [2] = biological target: bovine serum albumin (bovine) (UniProt P02769); assay: binding test against a panel of arbitrarily selected proteins
# [3] = biological target: Pin1 (Example 6, construct not stated) (human) (UniProt Q13526); assay: cell-based or functional assay
# [4] = biological target: Pin1 (Example 6, construct not stated) (human) (UniProt Q13526); assay: FA competition; competitor probe FITC-labeled peptide 1 (100 nM), Pin1 400 nM
# Chain of bovine serum albumin (bovine) (P02769 25-607 limits assumed): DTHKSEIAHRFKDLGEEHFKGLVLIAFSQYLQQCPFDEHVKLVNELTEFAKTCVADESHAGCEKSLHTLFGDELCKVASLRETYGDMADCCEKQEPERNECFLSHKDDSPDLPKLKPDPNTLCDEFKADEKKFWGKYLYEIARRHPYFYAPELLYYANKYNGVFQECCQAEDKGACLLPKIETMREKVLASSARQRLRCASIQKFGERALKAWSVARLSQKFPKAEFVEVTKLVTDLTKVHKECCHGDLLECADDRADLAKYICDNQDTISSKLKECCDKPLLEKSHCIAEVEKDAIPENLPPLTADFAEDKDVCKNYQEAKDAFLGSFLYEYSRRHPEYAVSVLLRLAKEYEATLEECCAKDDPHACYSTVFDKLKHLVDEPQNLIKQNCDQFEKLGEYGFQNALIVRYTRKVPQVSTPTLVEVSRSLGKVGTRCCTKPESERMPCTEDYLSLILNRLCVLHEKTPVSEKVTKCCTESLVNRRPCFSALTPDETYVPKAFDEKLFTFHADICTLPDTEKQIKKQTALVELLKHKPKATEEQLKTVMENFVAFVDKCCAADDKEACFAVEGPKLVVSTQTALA
Kd [1] [nM],Binder,further results
720,"Trimesoyl-P[Sar][dD][Pip′][2Nal]RR[dA][Dap]F[2Nal]RRRR[Dap]K-NH2 (linker (positions not given here) via Trimesoyl; not fully specified (some residues, bridges); printed as bicyclo[Tm-(Pro-Sar-D-Asp-Pip-Nal-Arg-Arg-D-Ala)-Dap-(Phe-Nal-Arg-Arg-Arg-Arg-Dap)]-Lys) [peptide 19 (Table 18)]",–
4600,"Trimesoyl-P[Sar][dD][Pip′][2Nal]RR[dD][Dap]F[2Nal]RRRR[Dap]K-NH2 (linker (positions not given here) via Trimesoyl; not fully specified (some residues, bridges); printed as bicyclo[Tm-(Pro-Sar-D-Asp-Pip-Nal-Arg-Arg-D-Asp)-Dap-(Phe-Nal-Arg-Arg-Arg-Arg-Dap)]-Lys) [peptide 25 (Table 18)]",–
3190,"Trimesoyl-P[Sar][dD][Pip′][2Nal]RD[dA][Dap]F[2Nal]RRRR[Dap]K-NH2 (linker (positions not given here) via Trimesoyl; not fully specified (some residues, bridges); printed as bicyclo[Tm-(Pro-Sar-D-Asp-Pip-Nal-Arg-Asp-D-Ala)-Dap-(Phe-Nal-Arg-Arg-Arg-Arg-Dap)]-Lys) [peptide 20 (Table 18)]",–
1260,"Trimesoyl-[dF]F[dT][Pip′][2Nal]RA[dF][Dap]F[2Nal]RRRR[Dap]K (linker (positions not given here) via Trimesoyl; not fully specified (some residues, C-terminus, bridges); printed as bicyclo[Tm-(D-Phe-Phe-D-Thr-Pip-Nal-Arg-Ala-D-Phe)-Dap-(Phe-Nal-Arg-Arg-Arg-Arg-Dap)]-Lys) [peptide 28 (Table 18)]",–
1780,"Trimesoyl-[dF][Phe(4-Br)][dT][Pip′][2Nal]RA[dF][Dap]F[2Nal]RRRR[Dap]K (linker (positions not given here) via Trimesoyl; not fully specified (C-terminus, bridges); printed as bicyclo[Tm-(D-Phe-4-BrPhe-D-Thr-Pip-Nal-Arg-Ala-D-Phe)-Dap-(Phe-Nal-Arg-Arg-Arg-Arg-Dap)]-Lys) [peptide 32 (Table 18)]",–

# The next lines start with the binder.
Binder,Kd [1] [nM],further results
"Trimesoyl-P[Sar][dD][Pip′][2Nal]RR[dV][Dap]F[2Nal]RRRR[Dap]K-NH2 (linker (positions not given here) via Trimesoyl; not fully specified (some residues, bridges); printed as bicyclo[Tm-(Pro-Sar-D-Asp-Pip-Nal-Arg-Arg-D-Val)-Dap-(Phe-Nal-Arg-Arg-Arg-Arg-Dap)]-Lys) [peptide 23 (Table 18)]",1920,–
Trimesoyl-[dPhe(4-F)][Phe(4-F)][dT][Pip′][2Nal]RA[dF][Dap]F[2Nal]RRRR[Dap]K (linker (positions not given here) via Trimesoyl; not fully specified (bridges); printed as bicyclo[Tm-(D-4-Fpa-Fpa-D-Thr-Pip-Nal-Arg-Ala-D-Phe)-Dap-(Phe-Nal-Arg-Arg-Arg-Arg-Dap)]-Lys) [peptide 37 (Table 18)],120,"Kd [2]: 20000 nM; IC50 of HeLa cell growth (MTT assay) [3]: 1000 nM; IC50 of Pin1 catalytic activity toward Suc-Ala-Glu-Pro-Phe-pNA [3]: 170 nM; PML protein level in HeLa cells (western blot), 0.2 µM inhibitor [3]: 1.8 fold; PML protein level in HeLa cells (western blot), plateau at ˜1 µM inhibitor [3]: 3.3 fold; IC50 [4]: 190 nM"
"Trimesoyl-[dF][Phe(4-F)][dT][Pip′][2Nal]RG[dA][Dap]F[2Nal]RRRR[Dap]K-NH2 (linker (positions not given here) via Trimesoyl; not fully specified (some residues, bridges); printed as bicyclo[Tm-(D-Phe-4-Fpa-D-Thr-Pip-Nal-Arg-Gly-D-Ala)-Dap-(Phe-Nal-Arg-Arg-Arg-Arg-Dap)]-Lys) [peptide 26 (Table 18)]",740,–
"Trimesoyl-P[Sar][dD][Pip′][2Nal]RR[dR][Dap]F[2Nal]RRRR[Dap]K-NH2 (linker (positions not given here) via Trimesoyl; not fully specified (some residues, bridges); printed as bicyclo[Tm-(Pro-Sar-D-Asp-Pip-Nal-Arg-Arg-D-Arg)-Dap-(Phe-Nal-Arg-Arg-Arg-Arg-Dap)]-Lys) [peptide 24 (Table 18)]",1310,–
"Trimesoyl-[dV][Phe(4-F)][dT][Pip′][2Nal]RA[dA][Dap]F[2Nal]RRRR[Dap]K (linker (positions not given here) via Trimesoyl; not fully specified (C-terminus, bridges); printed as bicyclo[Tm-(D-Val-4-Fpa-D-Thr-Pip-Nal-Arg-Ala-D-Ala)-Dap-(Phe-Nal-Arg-Arg-Arg-Arg-Dap)]-Lys) [peptide 34 (Table 18)]",1070,–
"Trimesoyl-[dF][Phe(3,4-F2)][dT][Pip′][2Nal]RA[dF][Dap]F[2Nal]RRRR[Dap]K (linker (positions not given here) via Trimesoyl; not fully specified (C-terminus, bridges); printed as bicyclo[Tm-(D-Phe-3,4-diFPhe-D-Thr-Pip-Nal-Arg-Ala-D-Phe)-Dap-(Phe-Nal-Arg-Arg-Arg-Arg-Dap)]-Lys) [peptide 29 (Table 18)]",410,–
"Trimesoyl-[dF]H[dT][Pip′][2Nal]RA[dF][Dap]F[2Nal]RRRR[Dap]K (linker (positions not given here) via Trimesoyl; not fully specified (C-terminus, bridges); printed as bicyclo[Tm-(D-Phe-His-D-Thr-Pip-Nal-Arg-Ala-D-Phe)-Dap-(Phe-Nal-Arg-Arg-Arg-Arg-Dap)]-Lys) [peptide 31 (Table 18)]",1680,–
"Trimesoyl-[dF][Phe(4-Cl)][dT][Pip′][2Nal]RA[dF][Dap]F[2Nal]RRRR[Dap]K (linker (positions not given here) via Trimesoyl; not fully specified (C-terminus, bridges); printed as bicyclo[Tm-(D-Phe-4-ClPhe-D-Thr-Pip-Nal-Arg-Ala-D-Phe)-Dap-(Phe-Nal-Arg-Arg-Arg-Arg-Dap)]-Lys) [peptide 30 (Table 18)]",780,–
"Trimesoyl-[dF][Phe(4-F)][dT][Pip′][2Nal]RS[dF][Dap]F[2Nal]RRRR[Dap]K-NH2 (linker (positions not given here) via Trimesoyl; not fully specified (some residues, bridges); printed as bicyclo[Tm-(D-Phe-Fpa-D-Thr-Pip-Nal-Arg-Ser-D-Phe)-Dap-(Phe-Nal-Arg-Arg-Arg-Arg-Dap)]-Lys) [peptide 21 (Table 18)]",570,–

# Reference: patent US20170355730A1
